Measurements: patent US7572600B2, “Enzymatic activities in chemokine-mediated inflammation” (Chemocentryx, Inc., priority 2004, dated 2009)

Assays:
[1] = system: human monocytes; assay: Calcium mobilization in freshly isolated human monocytes; type: cell-based
Experimental: (§1) Calcium Mobilization Assay. Cells were loaded for 1 hour with 2 μM indo-1/AM dye (Molecular Probes, Eugene, Oreg.) in culture medium, then washed with 10 ml PBS and resuspended at 10^6/ml in HBSS containing 1% FBS. Cytosolic calcium responses were determined using a Photon Technology International (Lawrenceville, N.J.) fluorimeter, with excitation at 350 nm and dual emission at 400 and 490 nm. Alternatively, cells were loaded with 5 μg/ml Fluo-4 AM dye (Molecular Probes, Eugene, Oreg.), then washed and analyzed on a Fluorometric Imaging Plate Reader 384 (FLIPR^384 Molecular Devices, Sunnyvale, Calif.), with 505 nm excitation and 530 nm emission.
(§2) Receptor signaling assay. For individual measurements, cells were loaded for 45 min at room temperature with 2 μM indo-1/AM (Invitrogen, Carlsbad Calif.) in culture medium, then washed with 10 ml PBS and resuspended at 10^6 cells/ml in HBSS containing 0.1% BSA. Cytosolic calcium levels were determined using a Photon Technology International fluorimeter (excitation at 350 nm, ratio of dual emission at 400 and 490 nm). For measuring calcium dose responses, cells were analyzed with a Fluorometric Imaging Plate Reader 384 (FLIPR^384) (Molecular Devices, Sunnyvale, Calif.). Cells were loaded for 1 hr at 37° C. with 5 μM fluo-4 in HBSS with 0.1% BSA, then washed, transferred to black-wall 96-well plates, and subsequently excited at 505 nm with emission recorded at 530 nm with a standard protocol provided by the manufacture. Cells were stimulated with agonists 20 s after the monitoring of fluorescence began. Data were analyzed and plotted in arbitrary units of fluorescence using Prism. To ensure that responses were specific to FPRL1, we utilized a selective small-molecule antagonist of human FPRL1, generated by ChemoCentryx, which was optimized from a high throughput compound library screening approach.

[2] = system: monocyte-derived dendritic cells; assay: Calcium mobilization in monocyte-derived dendritic cells; type: cell-based, human; details: immature DC; after digestion with chymase, cathepsin G, elastase, synovial fluid or PMN sup #1
Experimental: Human monocytes were obtained from buffy coats purchased from the Stanford Blood Bank (Palo Alto, Calif.) by sedimentation on Ficoll-Paque (Amersham, Piscataway, N.J.) and selection with anti-CD14 magnetic beads (Miltenyi, Auburn, Calif.) according to the manufacturers' instructions. For generation of dendritic cells, monocytes were cultured for 6 days in RPMI-1640 medium containing 10% FBS (HyClone, Logan, Utah). On days 0, 2 and 4, GM-CSF and IL-4 (both purchased from R&D Systems, Minneapolis, Minn.) were added to the cultures at 1000 WHO unit/ml each. The cells were confirmed to be CD14^−CD1a^+ immature DC by FACS staining on day 6.
as §1
Immature and mature DC preparation. Immature DCs were derived by culturing CD14+ monocytes in T-175 cultured flasks at a density of 10^6 cells/ml in RPMI supplemented with 10% FBS. Recombinant human cytokines GM-CSF and IL-4 (final concentration 1000 and 500 U/ml, respectively) were added on day 0, 2, 4 and 6. Cells were harvested on day 6 as immature DCs and characterized for surface marker expression by flow cytometry. DC maturation was carried out by culturing day-6 immature DCs in RPMI-10% FBS supplemented with GM-CSF, IL-4 and 50 μg/ml polyIC (Sigma, St. Louis Mo.). After two more days of culture, cells were harvested as mature DCs and characterized by surface marker expression by flow cytometry.
as §2

[3] = molecular target: T1, L1.2-CCR1 cells (Homo sapiens, UniProt P32246); assay: L1.2-CCR1 chemotaxis assay; type: cell-based; details: three-point titrations 0.5, 5, 50 nM, 2 hr
T1 construct: expressed in transfected cells; host or cells: murine L1.2 cells (G-418 selected transfectant)
T1 sequence (P32246 1-355): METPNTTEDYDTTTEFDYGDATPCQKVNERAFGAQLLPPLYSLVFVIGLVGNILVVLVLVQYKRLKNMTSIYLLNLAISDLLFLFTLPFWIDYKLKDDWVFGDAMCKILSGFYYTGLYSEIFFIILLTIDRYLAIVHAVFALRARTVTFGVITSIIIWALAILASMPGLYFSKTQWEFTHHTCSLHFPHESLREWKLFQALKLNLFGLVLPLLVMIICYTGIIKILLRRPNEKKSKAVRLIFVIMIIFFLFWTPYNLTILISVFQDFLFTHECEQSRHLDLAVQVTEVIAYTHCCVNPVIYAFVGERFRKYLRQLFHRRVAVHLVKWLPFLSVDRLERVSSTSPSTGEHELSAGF
Experimental: (§3) Chemotaxis assay. L1.2-CCR1 transfectants, THP-1 cells, human monocytes and human neutrophils were collected by centrifugation and resuspended in HBSS containing 0.1% BSA. Chemotaxis assays were performed in 96-well ChemoTx® microplates (Neuroprobe, Rockville, Md.) as follows. Chemokines were added to the lower wells (final volume 29 μL), and 20 μL of cell suspension (5×10^6 cells/mL) was added to the polycarbonate filter (3 μm pore size for neutrophils, 5 μm for other 3 cell types). After incubation at 37° C. in the presence of 5% CO2 for 1 hr (neutrophils), 90 min (monocytes) or 2 h (THP-1 and L1.2-CCR1), cells were removed from the upper surface of the filter by scraping. Cells that migrated into the lower chamber were quantified by using the CyQuant cell proliferation assay kit (Molecular Probes, Eugene, Oreg.) and analyzed with a Tecan (Durham, N.C.) fluorimeter (excitation at 480 nm, emission at 530 nm). Data were analyzed and plotted in arbitrary units of fluorescence using Prism (GraphPad Software, San Diego, Calif.).

[4] = system: human monocytes; assay: Chemotaxis of human monocytes; type: cell-based
Experimental: as §3
(§4) Chemotaxis assays. L1.2-CCR1 and L1.2-FPRL1 transfectants, monocytes and neutrophils were collected by centrifugation and resuspended in HBSS with 0.1% BSA. The assays were performed in 96-well ChemoTx® microplates (Neuroprobe, Rockville, Md.). Chemokines were diluted in HBSS with 0.1% BSA and added to the lower wells (final volume 29 μL), then 20 μL of cell suspension (5×10^6 cells/mL for monocytes; 2.5×10^6 cells/mL for neutrophils) were added to the polycarbonate filters (5 μm pore size for monocytes and FPRL1 transfectants; 3 μm pore size for neutrophils). After incubation for 90 min (37° C., 100% humidity, 5% CO2), the filters were removed and the cells that migrated into the lower chamber were quantified by using the CyQuant cell proliferation assay kit (Molecular Probes, Oreg.).

[5] = molecular target: T2, CCR1 (Homo sapiens, UniProt P32246); assay: Calcium mobilization in murine L1.2 cells expressing human CCR1; type: cell-based; set-up: expressed in transfected cells; host or cells: murine L1.2 cells (G-418 selected transfectant); details: for calcium mobilization: L1.2-CCR1 cells
T2 sequence (P32246 1-355): T1 sequence (P32246 1-355)
Experimental: as §1, §2

[6] = system: human neutrophils; assay: Chemotaxis of human neutrophils; type: cell-based
Experimental: as §3, §4

[7] = molecular target: T2, CCR1; assay: Competition binding with 125I-MIP-1α on human monocytes; set-up: endogenous in cells; host or cells: human CD14+ monocytes from buffy coats
Experimental: Binding assay. Competition binding studies were conducted using monocytes, L1.2-CCR1 or L1.2-FPRL1 cells. Cells were incubated for 3 hr at 4° C. with ^125I-MIP-1α (final concentration ˜0.05 nM) or ^125I-WKYMVm (final concentration ˜0.01 nM) in buffer (25 mM HEPES, 140 mM NaCl, 1 mM CaCl2, 5 mM MgCl2 and 0.2% BSA, adjusted to pH 7.1) in the presence of increasing amounts of unlabeled chemokine. Reactions were aspirated onto PEI-treated GF/B glass filters using a cell harvester (Packard). Filters were washed twice (25 mM HEPES, 500 mM NaCl, 1 mM CaCl2, 5 mM MgCl2, adjusted to pH 7.1). Scintillant (MicroScint-10; 35 μl) was added to the filters and counted in a Packard Topcount scintillation counter. Data were analyzed and plotted using Prism (GraphPad Software, San Diego, Calif.).

[8] = molecular target: T3, CCR9 (Homo sapiens, UniProt P51686); assay: Calcium mobilization in Molt4 cells; type: cell-based; details: digestions at 1 nM, all proteases and fluids tested
T3 construct: endogenous in cells; host or cells: Molt4 cells (per the assay name)
T3 sequence (P51686 1-369): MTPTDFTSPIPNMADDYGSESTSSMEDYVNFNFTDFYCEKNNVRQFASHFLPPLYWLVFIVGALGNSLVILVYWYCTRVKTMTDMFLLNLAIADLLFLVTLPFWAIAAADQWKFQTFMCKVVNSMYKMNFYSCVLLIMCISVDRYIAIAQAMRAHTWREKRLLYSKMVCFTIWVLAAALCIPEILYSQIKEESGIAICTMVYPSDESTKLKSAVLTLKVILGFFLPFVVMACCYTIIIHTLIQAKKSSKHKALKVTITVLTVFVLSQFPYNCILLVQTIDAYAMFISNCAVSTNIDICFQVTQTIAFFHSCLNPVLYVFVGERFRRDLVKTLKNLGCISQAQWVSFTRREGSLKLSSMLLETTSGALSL
Experimental: as §1

[9] = undigested chemokine or peptide, 100 nM (CCL23β up to 250 nM)
[10] = 10 nM input chemokine, after digestion with proteases and fluids
[11] = 10 nM, undigested or recombinant chemokine

B1: CCL6/C10: recombinant murine C6* chemokine (protein, listed as Homo sapiens)
chain: GLIQEMEKEDRRYNPPIIHQGFQDTSSDCCFSYATQIPCKRFIYYFPTSGGCIKPGIIFISRRGTQVCADPSDRRVQRCLSTLKQGPRSGNKVIA
calcium mobilization ([1]; 100 nM after digestion with chymase, cathepsin G, elastase or synovial fluid): mobilized calcium
calcium mobilization [1, 9]: unable to induce calcium mobilization
calcium mobilization versus full-length chemokine [2]: more efficacious
chemotaxis potency of truncated forms versus full-length chemokine [3]: greater potency
chemotaxis ([4]; 200 nM after digestion with chymase, cathepsin G or elastase): stimulated chemotaxis
concentration with the most migration ([4]; after digestion with synovial fluid #1): 2 nM
calcium mobilization [5, 10]: uniformly active
calcium mobilization [5, 11]: either not active or weakly active

B2: CCL9/MIP-1γ: recombinant murine C6* chemokine (protein, listed as Homo sapiens)
chain: QITHATETKEVQSSLKAQQGLEIEMFHMGFQDSSDCCLSYNSRIQCSRFIGYFPTSGGCTRPGIIFISKRGFQVCANPSDRRVQRCIERLEQNSQPRTYKQ
chemotaxis potency of truncated forms versus full-length chemokine [3]: greater potency
calcium mobilization [5, 10]: uniformly active
calcium mobilization [5, 11]: either not active or weakly active

B3: CCL23Δ24/MPIF-1: Recombinant CCL23/CKβ8 lacking the N-terminal 24 residues (46-120) (protein)
chain: RFHATSADCCISYTPRSIPCSLLESYFETNSECSKPGVIFLTKKGRRFCANPSDKQVQVCMRMLKLDTRIKTRKN
calcium mobilization [1, 9]: strong calcium responses
chemotaxis [6]: unable to induce migration
chemotaxis ([4]; undigested): moderately strong chemoattraction
calcium mobilization in the CCR1 transfectant ([5]; L1.2 cells stably expressing human CCR1): effective at inducing calcium mobilization
inhibition of 125I-MIP-1α binding [7]: most potent competitor

B4: CCL25/TECK: non-C6* β-chemokine signaling through CCR9 (protein, UniProt O15444 24-150, looked up)
C-C motif chemokine 25: QGVFEDCCLAYHYPIGWAVLRRAWTYRIQEVSGSCNLPAAIFYLPKRHRKVCGNPKSREVQRAMKLLDARNKVFAKLHHNTQTFQAGPHAVKKLSSGNSKLSSSKFSNPISSSKRNVSLLISANSGL
signaling through CCR9 after digestion [8]: inactivated
